1 substance from article doi:10.1101/2021.08.08.454510 can be followed below.

The target in this experiment is fluorophore-conjugated GCK peptide (aa 59-74), wild type (human) (UniProt P35557). As to the kind of experiment: fluorescence polarisation.

“TNKS ARC1-5 with a C-terminal (His)6 tag (from UniProt O95271 1-1327) (domain or fragment)” returned a Kd of 500 nM.
